Measurements reported in patent publication US20080247944A1 (published 2008).

T1: IRTA-4, full length transmembrane form with N-terminal myc tag, on transfected CHO cells (human, UniProt Q96LA5 20-508)
T1 construct: also called CHO cells transfected with IRTA-4; human IRTA-4; not shown: myc tag at the N-terminus
T1 sequence: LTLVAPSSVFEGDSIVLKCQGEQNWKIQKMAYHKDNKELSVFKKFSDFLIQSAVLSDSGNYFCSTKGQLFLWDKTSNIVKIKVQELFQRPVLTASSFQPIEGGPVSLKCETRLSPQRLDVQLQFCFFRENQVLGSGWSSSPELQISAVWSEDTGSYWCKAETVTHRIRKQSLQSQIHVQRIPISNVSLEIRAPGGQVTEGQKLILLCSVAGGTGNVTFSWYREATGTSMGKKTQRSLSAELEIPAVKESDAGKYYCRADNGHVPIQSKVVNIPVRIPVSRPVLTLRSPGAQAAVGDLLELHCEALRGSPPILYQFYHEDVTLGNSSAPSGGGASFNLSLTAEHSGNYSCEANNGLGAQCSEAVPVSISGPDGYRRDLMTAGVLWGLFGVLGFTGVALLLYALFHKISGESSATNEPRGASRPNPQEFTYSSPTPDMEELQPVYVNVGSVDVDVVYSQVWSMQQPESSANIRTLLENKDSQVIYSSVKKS

T2: IRTA-2, full length transmembrane form with N-terminal myc tag, on transfected CHO cells (human, UniProt Q96RD9 16-977)
T2 construct: also called CHO cells transfected with IRTA-2; human IRTA-2; not shown: myc tag at the N-terminus
T2 chain: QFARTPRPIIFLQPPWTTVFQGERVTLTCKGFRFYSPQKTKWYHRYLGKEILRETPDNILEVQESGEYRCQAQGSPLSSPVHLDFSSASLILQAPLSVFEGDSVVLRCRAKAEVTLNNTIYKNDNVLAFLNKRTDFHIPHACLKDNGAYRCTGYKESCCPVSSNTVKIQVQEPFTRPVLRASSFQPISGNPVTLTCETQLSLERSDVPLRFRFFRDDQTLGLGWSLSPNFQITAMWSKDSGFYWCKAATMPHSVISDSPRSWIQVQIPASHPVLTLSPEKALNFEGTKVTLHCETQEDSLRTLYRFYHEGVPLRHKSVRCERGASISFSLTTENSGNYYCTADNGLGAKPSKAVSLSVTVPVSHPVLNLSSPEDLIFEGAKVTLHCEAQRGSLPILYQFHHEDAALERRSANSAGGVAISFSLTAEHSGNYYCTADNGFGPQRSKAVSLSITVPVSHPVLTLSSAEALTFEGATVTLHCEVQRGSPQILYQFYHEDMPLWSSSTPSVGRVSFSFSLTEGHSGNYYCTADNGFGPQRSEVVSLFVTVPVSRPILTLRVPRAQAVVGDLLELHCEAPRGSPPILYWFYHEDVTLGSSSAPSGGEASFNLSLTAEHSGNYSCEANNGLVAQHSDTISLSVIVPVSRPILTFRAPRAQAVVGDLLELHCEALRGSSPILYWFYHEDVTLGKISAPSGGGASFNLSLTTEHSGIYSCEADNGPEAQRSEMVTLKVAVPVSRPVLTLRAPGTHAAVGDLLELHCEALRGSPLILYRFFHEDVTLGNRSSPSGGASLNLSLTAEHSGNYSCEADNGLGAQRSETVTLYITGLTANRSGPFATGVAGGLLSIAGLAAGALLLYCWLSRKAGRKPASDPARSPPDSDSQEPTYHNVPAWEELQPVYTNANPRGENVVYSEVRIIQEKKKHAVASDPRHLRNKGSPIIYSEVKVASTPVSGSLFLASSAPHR

T3: IRTA-2-Fc antigen (fusion protein composed of the extracellular domain of the IRTA-2 linked to the Fc portion … (human, UniProt Q96RD9 16-851))
T3 construct: not shown: Fc portion of human IgG1
T3 chain: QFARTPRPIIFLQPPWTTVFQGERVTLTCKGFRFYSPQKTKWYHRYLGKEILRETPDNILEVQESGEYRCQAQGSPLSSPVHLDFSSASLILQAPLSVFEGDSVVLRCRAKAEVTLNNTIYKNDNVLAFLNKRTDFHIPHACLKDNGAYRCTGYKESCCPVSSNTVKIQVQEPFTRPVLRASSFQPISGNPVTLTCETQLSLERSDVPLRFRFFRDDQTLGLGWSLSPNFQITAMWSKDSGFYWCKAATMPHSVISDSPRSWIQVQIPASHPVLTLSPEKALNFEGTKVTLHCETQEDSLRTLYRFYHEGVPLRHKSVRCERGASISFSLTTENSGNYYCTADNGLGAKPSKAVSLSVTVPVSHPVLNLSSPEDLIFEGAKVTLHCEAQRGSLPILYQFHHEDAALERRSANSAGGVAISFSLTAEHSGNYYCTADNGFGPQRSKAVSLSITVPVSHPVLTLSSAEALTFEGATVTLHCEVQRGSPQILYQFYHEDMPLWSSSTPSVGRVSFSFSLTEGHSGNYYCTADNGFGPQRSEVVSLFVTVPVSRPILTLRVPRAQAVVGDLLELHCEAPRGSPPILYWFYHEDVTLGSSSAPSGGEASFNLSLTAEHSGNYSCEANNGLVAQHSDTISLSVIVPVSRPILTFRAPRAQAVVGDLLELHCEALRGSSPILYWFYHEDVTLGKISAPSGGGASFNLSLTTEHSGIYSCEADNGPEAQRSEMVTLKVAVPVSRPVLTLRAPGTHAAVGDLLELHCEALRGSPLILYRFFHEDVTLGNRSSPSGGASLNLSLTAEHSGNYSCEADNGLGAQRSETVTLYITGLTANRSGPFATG

T4: IRTA-3, full length transmembrane form with N-terminal myc tag, on transfected CHO cells (human, UniProt Q96P31 18-734)
T4 construct: also called CHO cells transfected with IRTA-3; human IRTA-3; not shown: myc tag at the N-terminus
T4 sequence: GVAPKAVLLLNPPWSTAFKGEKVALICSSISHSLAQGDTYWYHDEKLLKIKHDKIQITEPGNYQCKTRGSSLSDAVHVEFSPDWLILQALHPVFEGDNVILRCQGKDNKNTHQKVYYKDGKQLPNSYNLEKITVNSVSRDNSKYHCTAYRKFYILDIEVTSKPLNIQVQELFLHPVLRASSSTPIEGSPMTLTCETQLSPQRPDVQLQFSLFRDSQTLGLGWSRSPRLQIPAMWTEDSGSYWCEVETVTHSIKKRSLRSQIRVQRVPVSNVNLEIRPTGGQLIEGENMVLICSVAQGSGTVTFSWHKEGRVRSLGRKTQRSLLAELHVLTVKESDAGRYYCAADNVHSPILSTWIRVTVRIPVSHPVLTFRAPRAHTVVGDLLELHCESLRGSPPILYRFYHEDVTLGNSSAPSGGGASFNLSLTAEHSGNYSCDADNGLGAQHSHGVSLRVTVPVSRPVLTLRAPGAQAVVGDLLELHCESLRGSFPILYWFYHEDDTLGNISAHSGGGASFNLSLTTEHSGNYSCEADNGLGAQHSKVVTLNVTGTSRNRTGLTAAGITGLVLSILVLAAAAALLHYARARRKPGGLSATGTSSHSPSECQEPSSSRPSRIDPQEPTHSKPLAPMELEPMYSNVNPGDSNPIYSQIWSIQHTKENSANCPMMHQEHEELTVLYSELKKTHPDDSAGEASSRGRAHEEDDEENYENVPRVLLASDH

B1: 9D12 human monoclonal antibody (antibody, V domains shown)
VH: EVQLLESGGGLVQPGGSLRLSCAASGFTFSSSAMSWVRQAPGKGLEWVSSISGSGDTTYYADSVKGRFTISRDNSKNTLYLQMNSLRVEDAALYYCAANWGAAFDIWGQGTMVTVSS
VL: EIVLTQSPATLSLSPGERATLSCRASQSVSSYLAWYQQKPGQAPRLLIYDASNRATGIPARFSGSGSGTDFTLTISSLEPEDFAVYYCQQRSNWPRWTFGQGTKVEIK
notes: Purified from a hybridoma of a HuMAb Mouse; Human IgG (captured and detected with anti-human IgG) with a kappa light chain (VK L6); also called anti-IRTA-2 HuMAb 9D12
B2: 8A1 human monoclonal antibody (antibody, V domains shown)
VH: QMQLVQSGAEVKKPGASVKVSCKASGYTFISYDINWVRQATGQGLEWMGWMHPNSGNTGYAQKFQGRVTMTRNTSISTAYMELSSLRSEDTAVYYCARGRGITMVRGGIIYYGMDVWGQGTTVTVSS
VL: AIQLTQSPSSLSASVGDRVTITCRASQGISSALAWYQQKPGKAPKLLIYDASSLESGVPSRFSGSGSGTDFTLTISSLQPEDFATYYCQQFNSYPHTFGQGTKLEIK
notes: Purified from a hybridoma of a KM Mouse; Human IgG (captured and detected with anti-human IgG) with a kappa light chain (VK L18); also called anti-IRTA-2 HuMAb 8A1

Key:
[1] = biological target: T1, IRTA-4, full length transmembrane form …; test: flow cytometry on CHO cells transfected with myc-tagged IRTA-4; PE-labeled anti-human IgG
Excerpt: (§1) Chinese hamster ovary (CHO) cell lines that express either the IRTA-2, IRTA-3 or IRTA-4 protein at the cell surface were developed and used to determine the specificity of the IRTA-2 monoclonal antibodies by flow cytometry. CHO cells were transfected with expression plasmids containing full length cDNA encoding transmembrane forms of IRTA-2, IRTA-3, or IRTA-4. In addition, the transfected proteins contained a myc tag at the N-terminus for detection by anti-myc antibody. Binding of the two anti-IRTA-2 monoclonal antibodies was assessed by incubating the transfected cells with each of the IRTA-2 Abs at a concentration of 10 μg/ml. The cells were washed and binding was detected with a phycoerythrin-labeled anti-human IgG Ab. A murine anti-myc Ab followed by labeled anti-murine IgG was used as the positive control. Secondary antibody alone was used as a negative control. The results are depicted in FIGS. 7A-C. The IRTA-2 monoclonal antibodies 9D12 and 8A1 bound to the CHO line transfected with IRTA-2 but not to CHO lines expressing IRTA-3 or -4, as measured by the mean fluorescent intensity (MFI) of staining.

[2] = biological target: T2, IRTA-2, full length transmembrane form …; test: flow cytometry on CHO cells transfected with myc-tagged IRTA-2; antibody at 10 µg/ml; PE-labeled anti-human IgG
Excerpt: as §1

[3] = biological target: T3, IRTA-2-Fc antigen (fusion protein …); test: Biacore SPR, antibody captured by anti-human IgG on CM5 chip, IRTA-2-Fc flowed at 50-400 nM, 1:1 Langmuir fit
Method: Anti-IRTA-2 antibodies were characterized for affinities and binding kinetics by Biacore analysis (Biacore AB, Uppsala, Sweden). Purified anti-IRTA-2 monoclonal antibodies were captured by anti-human IgG antibody covalently linked to a CM5 chip (carboxy methyl dextran coated chip) via primary amines, using standard amine coupling chemistry and kit provided by Biacore. Binding was measured by flowing the IRTA-2-Fc antigen (a fusion protein composed of the extracellular domain of the IRTA-2 linked to the Fc portion of human IgG1) in HBS EP buffer (provided by Biacore AB) at concentrations of 400, 300, 200, 100, and 50 nM at a flow rate of 12 μl/min. The antigen-antibody association kinetics was followed for either 20 minutes (for 8A1) or 5 minutes (for 9D12) and the dissociation kinetics was followed for ether 10 minutes (for 8A1) or 5 minutes (for 9D12). The association and dissociation curves were fit to a 1:1 Langmuir binding model using BIAevaluation software (Biacore AB).

[4] = biological target: T4, IRTA-3, full length transmembrane form …; test: flow cytometry on CHO cells transfected with myc-tagged IRTA-3; PE-labeled anti-human IgG
Excerpt: as §1

Binder	binding result [1]	binding result [2]	Kd [3]	koff [3]	kon [3]	binding result [4]
B1	no binding (tested: 10 µg/ml)	binds	2.1 nM	6.9e-05 s⁻¹	34000 M⁻¹ s⁻¹	no binding (tested: 10 µg/ml)
B2	–	–	20 nM	0.00011 s⁻¹	5800 M⁻¹ s⁻¹	–
